Test results reported in CN112048019A (LUNAN PHARMACEUTICAL GROUP CORP, dated 2020).

What was measured:
重组CD47-Fc融合蛋白 = molecular target: T1, 重组CD47-Fc融合蛋白 (human, UniProt Q08722 19-139, limits assumed); assay: competition ELISA: CD47-Fc coated, antibody blocks binding of SIRPα-His, anti-His-HRP detection
T1 construct: not shown: Fc part

[1] = molecular target: CD47蛋白 (analyte in the ForteBio assay) (human, UniProt Q08722 19-139, limits assumed); assay: BLI (ForteBio), antibody captured on Protein A sensor, CD47 protein in solution at 6 concentrations
Sequence of CD47蛋白 (analyte in the ForteBio assay) (Q08722 19-139 limits assumed): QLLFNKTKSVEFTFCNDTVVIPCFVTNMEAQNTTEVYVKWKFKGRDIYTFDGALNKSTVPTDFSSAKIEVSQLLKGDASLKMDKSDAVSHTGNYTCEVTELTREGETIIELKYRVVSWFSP

CD47-his蛋白 = CD47-his蛋白 (human); assay: screening ELISA of hybridoma supernatant on coated CD47-his
Sequence of CD47-his蛋白 (human) (chain, as listed by the source limits assumed): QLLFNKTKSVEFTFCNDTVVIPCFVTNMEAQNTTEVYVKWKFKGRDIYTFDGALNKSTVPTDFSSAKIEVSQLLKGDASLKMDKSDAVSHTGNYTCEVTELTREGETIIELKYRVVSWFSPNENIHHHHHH

T1 sequence (Q08722 19-139 limits assumed): as the sequence (Q08722 19-139 limits assumed) above

B1: 抗CD47单克隆抗体3D8 (杂交瘤细胞株3D8, CGMCC No:17293) (antibody, V domains shown)
VH: EVKLQESGAELMKPGASVKISCKATGYTFSRYWIEWVKQRPGHGLEWIGDILPGTSNTNYNEKFKGKATFTADSSSNTAYMQLSSLTSEDSAVYYCARRGLLRFDCWGQGTTVTVSS
VL: DIQLTQSPAIMSASPGEKVTMTCRASSSVSSSYLHWYQQKSGASPKLWIYSSSTLASGVPARFSGSGSGTSYSLTISSVEAEDAATYYCQQYSGYPLTFGSGTKLGIKR
In the case of B1, the EC50 (重组CD47-Fc融合蛋白) is reported as 170 pM, the Kd [1] is reported as 12.9 pM and the koff [1] is reported as 1.1e-05 s⁻¹. For the same binder, the kon [1] was 853000 M⁻¹ s⁻¹ and the binding result (CD47-his蛋白) was “binds”.
